# Test results as given in patent publication US20070265201A1, “INHIBITORS OF IN[…] TRA[…] FROM HCMV PROTEIN IE2” (priority 2005, published 2007).
# B1: GFP 291-364 (protein)
# chain: SSHHGRGGFGGAASSSLLSCGHQSSGGASTGPRKKKSKRISELDNEKVRNIMKDKNTPFCTPNVQTRRGRVKID
# modifications: left off: large carriers
# Test system: C/EBPβ
# Assay: Specificity control: C/EBPβ expression by western blot of transfected HeLa-S3 lysates
# Assay type: cell-based
# Settings: HeLa-S3 cell lysates, FIG. 4C
# Procedure: FIGS. 4A-4D. […] FIG. 4D is another specificity control showing that a control GFP expression vector was not affected by either IE2 291-343 or IE2 291-364. HeLa-S3 cells were transfected with both a GFP expression vector and cotransfected with either E2 291-343 or IE 291-364 expression vectors and GFP expression analyzed 24 hours later by a fluorescence activated cell sorter.
# Because the IE2 291-364 region was previously mapped as one of three TBP binding sites on IE2, it was possible that the inhibitory function was due to interaction with TBP. To exclude this possibility, the expression of two other genes that contain TATA boxes in their promoters were investigated. First, an observed the expression of C/EBPβ from the expression vector by western blot (FIG. 4C) was conducted. […] Second, His-tagged inhibitors were cotransfected with ev GFP and the geometric mean brightness of transfected cells measured by flow cytometry (FIG. 4D). […] It is believed that the basis for the interaction is localized to residues 315-328 of the IE2 molecule because a variant of IE2 291-364 missing the 315-328 region (delA) lacks binding to Spi-1 ETS domain in a GST fusion pull-down assay (FIG. 5).
molecule,measurement,value
B1,effect on expression of C/EBPβ protein (western blot),no reduction
